Tests used:
[1] = system: Drosophila CRE (CRE-hsp-Luc reporter); test: CRE-hsp-Luc reporter assay in Drosophila S2 cells; assay type: cell-based, Drosophila melanogaster; conditions: 48 hours post-transfection
Excerpt: The amplified product was inserted into the Drosophila P-element transformation vector, pUAST (Brand and Perrimon, Development 118:401-415 (1993)). The final construct pUAS-dCREAP was used for transfection experiments in Drosophila melanogaster Schneider cells (S2). A firefly luciferase reporter was created which contained 4 copies of the drosophila CRE enhancer element (SEQ ID 39) (Eresh, S. et. Al. EMBO J. 16:2014-2022 (1997)) followed by hsp70 minimal promoter.
The S2 cells were transfected in 6 well plates (Costar) by the CaPO4 method (Bunch, T. and Goldstein, L. Nucleic Acids Res. 17:9761-9782 (1989)). A total of 25 ug of DNA was transfected into a 6-well dish containing 4 mls of cells (˜1×10^6 cells/ml). The transfection mix was removed after 18 hr and the luciferase assays were performed 48 hrs later. The UAS-transgenes were activated by co-transfection with the Actin promoter-Gal4 plasmid provided by Dr. Norbert Perrimon. The transfection efficiency was normalized co-transfection with hsp^mln Renilla luciferase driven by minimal heat shock promoter (made according to conventional methods). Luciferase activity was measured using the Dual-luciferase assay kit (Promega). […] Data were calculated as fold induction compared to the reporter gene's activity measured in the cells designated as negative control.

[2] = biological target: T1, ATF2-GAL4 fusion molecule (Homo sapiens, UniProt P15336); test: In vivo kinase assay, ATF2-GAL4 fusion in HLR cells; assay type: cell-based; conditions: 40 hours after transfection
T1 construct: host or cells: HLR cell line (5x GAL4 element-luciferase reporter)
Protocol: For in vivo kinase assay, activation domains of CREB or ATF2 transcription factors fused with the yeast GAL4 DNA binding domain (1-147 Amino Acids) constructs are used (Stratagene, PathDetect In Vivo Signal Transduction Pathway trans-reporting Systems). The HLR cell line that contains a 5× GAL4 DNA binding element and TATA box driving luciferase reporter is used per manufacturer's protocol (Stratagene). 10^4 HLR cells are split into each well of 96 well tissue culture plates. After 16 hours, cells are transfected with 100 ng of Creb-GAL4 or ATF2-GAL4 fusion constructs, 30 ng of Renilla luciferase control plasmid together with 100 ng of pCMVSPORT6, pCMVSPORT-CREAP1, pFC-PKA or pFC-MEKK (Stratagene) activator plasmids respectively. Transfection is done with Fugene6 reagent (Roche Molecular Biochemicals, Basel, Switzerland) according to the manufacturers manual. Forty hours after transfection, a Dual-Glo Luciferase assay (Promega) is conducted using the manufacturer's protocol.
As CREAP1 strongly activates CRE promoter transcription, we next investigated whether CREAP1 works through the CREB pathway. […]

[3] = system: human IL-8 promoter; test: pGL2-IL-8p-Luc reporter inducibility in HEK 293 cells; assay type: cell-based; conditions: expression construct co-transfected into HEK 293 cells, 48 hours post transfection
Protocol: A luciferase reporter controlled by a 1.5 kB IL-8 promoter containing fragment of human IL-8 promoter was tested for inducibility by known regulators of cytokine-mediated gene expression. pNF-κB-Luc (BD Biosciences) and pGL2-IL-8p-Luc reporters were co-transfected into HEK 293 cells with expression constructs encoding known activators of the NF-κB pathway, truncated MEKK (AA 360-672) (Stratagene) and a full length TRAF6 cDNA made according to conventional methods using a proprietary clone collection. Cells co-transfected with empty pCMV-Sport6 vector were either left untreated or treated with TNFα (50 ng/ml, for 16 hours). Luciferase activity was measured 48 hours post transfection. The pNF-κB-Luc reporter was used as a positive control.

[4] = system: secreted IL-8 protein from HeLa cells; test: IL-8 Elisa assay in HeLa cells; assay type: cell-based; conditions: after transfection
Protocol: HeLa cells are transfected with DNA samples selected from the group of sequence verified and confirmed hits at 100 ng per well in 96 well plates (Costar) using the protocol described above. DNA samples designated as co-activators are co-transfected at 25 ng per well. Empty vector pCMV-Sport6 is used as a negative control. 72 hours post-transfection IL-8 content is measured in the cell growth media in prediluted aliquots corresponding to 1 to 5 μl of conditioned growth media using an IL-8 Elisa kit (Sigma) following the provided protocol. As a positive control, growth media is collected from the cells transfected with empty vector and treated with IL-1β and TNFα (R&D Systems) at 5 ng/ml and 50 ng/ml respectively for 16 hours prior to collection of the growth media for the IL-8 assay.

[5] = system: CRE-like element of IL-8 promoter (pCREL-Luc); test: pCREL-Luc reporter (concatamerized CRE-like site) assay; assay type: cell-based; conditions: minimal promoter carrying concatamerized CRE-like site; data not shown
Excerpt: The pIL-8Luc reporter was constructed by insertion of the −1491 to +43 region of the human IL-8 gene into pGL3Basic vector (Promega, Inc). PCR was used to generate a wild type minimal IL-8 promoter as well as point mutants. Mutations in AP-1, C/EBP, NF-κB were as described by Wu et al. (Wu et al. J. Biol. Chem., 272:2396-2403 (1997)). The sequence of a putative CRE-like site TGACATAA was mutated to TCGATCAA. Promoter constructs carrying 6 concatamerised copies of CRE-like response element (pCREL-Luc) or 5 copies of CRE-like element TGACACAA found in human PEPCK and CAPL promoters (pCREL2-Luc) were prepared by ligating PCR amplified sequences into pTAL-Luc (BD Biosciences). All techniques were performed using conventional methods.
In order to determine if the “CRE-like element” was directly responsive to CREAP1 or MAP3K11, the ability of both genes to activate a minimal promoter carrying concatamerized CRE-like site (pCREL-Luc) was examined. In addition, we studied the effect of PMA known inducer of AP-1.

T1 sequence (P15336 with tags, fused parts or gaps limits assumed): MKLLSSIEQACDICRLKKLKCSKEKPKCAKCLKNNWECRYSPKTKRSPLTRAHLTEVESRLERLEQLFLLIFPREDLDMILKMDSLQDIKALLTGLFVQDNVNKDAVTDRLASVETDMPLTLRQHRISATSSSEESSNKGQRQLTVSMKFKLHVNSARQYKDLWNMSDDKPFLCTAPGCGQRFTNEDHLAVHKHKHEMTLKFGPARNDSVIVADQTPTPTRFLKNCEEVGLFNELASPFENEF

B1: dCREAP: Drosophila CREAP gene product, 797 amino acids, SEQ ID NO 27; expressed from pUAS-dCREAP (protein)
chain: MANPRKFSEKIALQKQKQAEGTAEFERIMKEVYATKRDEPPANQKILDGLVGGQEVSQSSPGAGNGTGGGGSGSGSGASGGGASPDGLGGGGGSPTAYRESRGRSVGVGPMRRPSERKQDRSPYGSSSTQQTLDNGQLNPHLLGPPTAESLWRRSSSDSALHQSALVAGFNSDVNSMGANYQQQQHQQQQQPGQPRSHSPHHGINRTMSPQAQRRKSPLLQPHQLQLQQLQQQQQQMQHQHQLHQQLQMQQLQQHQQQHQQQQQQQNTPYNNAKFTNPVFRPLQDQVNFANTGSLPDLTALQNYGPQQQQQQSQQQPSQQQQQLQQTLSPVMSPHNHRRERDQSPSPFSPAGGGGGAGPGSPYQQQQHSPTGNTQQQQQQHQQPSNSPHLSFTNLATTQAAVTTFNPLPTLGPHNATDYRQPPNPPSPRSSPGLLSSVSATDLHSSAPASPIRQQQQAHQQQQQQQQAQQQQQQFDNSYNSLNTSFHNQFEIFSLGDSNSSPEQQGFANNFVALDFDDLSGGGGGGPSGGGGSNGGGLTNGYNKPEMLDFSELSGSPEASGNNNHMRRGVSNLNNNGLSNGVVGSTHNGSTNLNGAGNNNSSSGGGTAQDPLGITTSPVPSPLGCPSSPLPIPIPMSAQSSPQQQHHHHQQQQQQHHQQQHHQQQQLSLSLHHSPHHSPMHSPHHGNSPLSSSSPVSHNACSNSNVVMNHQQQQQQHHHQQHHHQGSSQSHTPTTANIPSIIFSDYSSNADYTREIFDSLDLDLGQMDVAGLQMLSDQNPIMIADPNIEDSFRRDLN
modifications: drosophila melanogaster
B1 was tested, and the Fold Activation ([1]; CRE-hsp-Luc reporter (4 copies of Drosophila CRE)) was 136.04 and the Fold Activation ([1]; hsp-Luc reporter without CRE) was 0.96.

B2: MEKK: truncated MEKK (AA 360-672) expression construct (Stratagene), known activator of the NF-κB pathway (protein, UniProt Q13233 360-672, looked up, fragment)
chain: FVMLRVFQLEPSDPMLWRKTLKNFEVESLFQKYHSRRSSRIKAPSRNTIQKFVSRMSNSHTLSSSSTSTSSSENSIKDEEEQMCPICLLGMLDEESLTVCEDGCRNKLHHHCMSIWAEECRRNREPLICPLCRSKWRSHDFYSHELSSPVDSPSSLRAAQQQTVQQQPLAGSRRNQESNFNLTHYGTQQIPPAYKDLAEPWIQVFGMELVGCLFSRNWNVREMALRRLSHDVSGALLLANGESTGNSGGSSGSSPSGGATSGSSQTSISGDVVEACCSVLSMVCADPVYKVYVAALKTLRAMLVYTPCHSLAE
For B2, the “stimulation of ATF2 fusion” value [2] was “more than 100 fold” and the “increase of IL-8 promoter-reporter activity” value [3] was 16 times.

B3: MAP3K11: Mitogen-Activated Protein Kinase Kinase Kinase 11 expression construct, AP-1 activator (protein, UniProt Q16584 1-847, looked up)
Mitogen-activated protein …: MEPLKSLFLKSPLGSWNGSGSGGGGGGGGGRPEGSPKAAGYANPVWTALFDYEPSGQDELALRKGDRVEVLSRDAAISGDEGWWAGQVGGQVGIFPSNYVSRGGGPPPCEVASFQELRLEEVIGIGGFGKVYRGSWRGELVAVKAARQDPDEDISVTAESVRQEARLFAMLAHPNIIALKAVCLEEPNLCLVMEYAAGGPLSRALAGRRVPPHVLVNWAVQIARGMHYLHCEALVPVIHRDLKSNNILLLQPIESDDMEHKTLKITDFGLAREWHKTTQMSAAGTYAWMAPEVIKASTFSKGSDVWSFGVLLWELLTGEVPYRGIDCLAVAYGVAVNKLTLPIPSTCPEPFAQLMADCWAQDPHRRPDFASILQQLEALEAQVLREMPRDSFHSMQEGWKREIQGLFDELRAKEKELLSREEELTRAAREQRSQAEQLRRREHLLAQWELEVFERELTLLLQQVDRERPHVRRRRGTFKRSKLRARDGGERISMPLDFKHRITVQASPGLDRRRNVFEVGPGDSPTFPRFRAIQLEPAEPGQAWGRQSPRRLEDSSNGERRACWAWGPSSPKPGEAQNGRRRSRMDEATWYLDSDDSSPLGSPSTPPALNGNPPRPSLEPEEPKRPVPAERGSSSGTPKLIQRALLRGTALLASLGLGRDLQPPGGPGRERGESPTTPPTPTPAPCPTEPPPSPLICFSLKTPDSPPTPAPLLLDLGIPVGQRSAKSPRREEEPRGGTVSPPPGTSRSAPGTPGTPRSPPLGLISRPRPSPLRSRIDPWSFVSAGPRPSPLPSPQPAPRRAPWTLFPDSDPFWDSPPANPFQGGPQDCRAQTKDMGAQAPWVPEAGP
B3 was tested, and the “accumulation of secreted IL-8 protein” value [4] was “induced small increases” and the “activation of pCREL-Luc” value [5] was “neither by MAP3K11”.

— US20070036810A1, “Cyclic amp response element activator proteins and uses related thereto” (priority 2003, published 2007)
